Laboratory results as given in PMC6817700.

Target: T1, T-box 5 (TBX5) (Homo sapiens, UniProt Q99593 1-518)
T1 sequence: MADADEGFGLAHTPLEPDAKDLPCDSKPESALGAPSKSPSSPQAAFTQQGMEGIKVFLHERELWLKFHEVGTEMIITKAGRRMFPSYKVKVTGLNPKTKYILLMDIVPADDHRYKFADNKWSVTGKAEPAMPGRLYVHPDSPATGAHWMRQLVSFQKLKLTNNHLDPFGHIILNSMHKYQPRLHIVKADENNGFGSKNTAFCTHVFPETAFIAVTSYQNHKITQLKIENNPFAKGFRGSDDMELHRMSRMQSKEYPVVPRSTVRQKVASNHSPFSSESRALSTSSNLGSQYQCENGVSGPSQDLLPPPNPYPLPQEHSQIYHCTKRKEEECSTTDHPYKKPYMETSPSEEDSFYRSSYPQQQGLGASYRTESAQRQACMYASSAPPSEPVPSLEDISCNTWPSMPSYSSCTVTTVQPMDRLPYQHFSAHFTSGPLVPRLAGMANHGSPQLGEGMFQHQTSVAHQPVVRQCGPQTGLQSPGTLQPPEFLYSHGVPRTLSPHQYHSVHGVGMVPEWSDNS
Test: EMSA

B1: CAGA (rs116461237 G>A) (dsDNA)
DNA 1: GCCCACCTCGGCCTCCCAAAGTTCTAGGATTACAGATGTGAGCTACC
DNA 2: GGTAGCTCACATCTGTAATCCTAGAACTTTGGGAGGCCGAGGTGGGGC
  binding result: no binding
